Changes are numbered by the printed parent chain. Values belong to the binder of their own block, whether it stands above or below them.
Legend:
[1] = molecular target: T1, recombinant human Interleukin-8 (human, UniProt P10145 28-99); test: KinExA "Kinetics, Direct" method
T1 construct: also called rhIL-8; IL-8
T1 sequence (looked up): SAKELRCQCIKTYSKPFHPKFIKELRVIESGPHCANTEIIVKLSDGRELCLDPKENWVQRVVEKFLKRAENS
Source text: (§1) For measuring the association rate constant using KinExA, the same rhIL-8-coupled beads were used as the probe and the “Kinetics, Direct” method was used. The “Kinetics, Direct” experiments by KinExA are identical to KinExA equilibrium assays with respect to bead column height, antibody capture, antibody concentration and antibody detection. Briefly, the mAb was mixed with an amount of antigen that bound approximately 80% of the mAb in the equilibrium experiments and the free antibody present in the sample was probed repeatedly, pre-equilibrium. […] The volumes and flow rates of the antigen-mAb mixtures and the Cy5-labeled secondary antibody were varied depending upon the mAb tested. Data was analyzed utilizing the KinExA analysis software that comes with the KinExA 3000 instrument. This software graphically represents the decrease in binding signals over time, and fits the collected data points to an exact solution of the kinetic differential equations for binding. From this curve, an optimal solution for the kₒₙ is determined. The koff is indirectly calculated from solutions for the kₒₙ and Kd.
(§2) The on-rate measurement by KinExA is not limited by the mAb concentration used in the experiment. […] The concentration of mAb used for on-rate experiments was the same as those used in equilibrium binding experiments. An amount of IL-8 that bound 80% of the mAb in equilibrium binding experiments was mixed with the mAb. The amount of free mAb left in the mixture was measured in KinExA by flowing 1 ml of the mixture repeatedly through rhIL-8 coupled to NHS-activated Sepharose beads and detected using 1 ml of 2.0 μg/ml of Cy5-labeled goat anti-human IgG Fcγ fragment-specific secondary antibody. The kₒₙ was measured using the KinExA software by the “Kinetic, Direct” method and the 95% confidence intervals are given as kₒₙ range. The koff for the mAb was calculated from the measured kₒₙ and Kd of the respective mAb.

[2] = molecular target: T1, recombinant human Interleukin-8; test: KinExA equilibrium in solution, 36 h, mAb 25 pM
Experimental: (§3) The experiments with KinExA were performed using an automated flow immunoassay system, KinExA 3000 [Ohmura et al., Anal. Chem. 73:3392, 2001] in which rhIL-8-coupled beads served as the solid phase. […] Antigen/antibody complexes were incubated at RT for 36 h to 144 h to allow equilibrium to be reached. The mixture was drawn through the rhIL-8-coupled beads to accumulate unbound antibody. The captured anti-hIL-8 mAb is directly proportional to the remaining free binding sites and was detected using solutions containing Cy5-conjugated anti-human secondary antibody in sample buffer. The concentrations, volumes, and flow rates of the secondary antibody solutions were varied to optimize the signal to noise ratio in each experiment. The bound signals were converted into relative values as a proportion of control in the absence of rhIL-8. The equilibrium dissociation constant (Kd) was obtained from nonlinear regression analysis of the data using a one-site homogeneous binding model contained within the software [Blake et Al., Anal. Biochem. 272:123, 1999; Jones et al., Bioconjug Chem 13:408, 2002]. The software calculates the Kd and determines the 95% confidence interval by fitting the data points to a theoretical Kd curve. The 95% confidence interval is given as Kd low and Kd high.
A proportionate amount of free mAb present in the equilibrium mixture was measured by flowing 0.25 ml to 3 ml of the sample on rhIL-8 coupled to CNBr-activated Sepharose beads and detected using 1.0 ml of 1.7 μg/ml of Cy5-labeled goat anti-human IgG Fcγ fragment-specific secondary antibody. Each sample was run in triplicate. The Kd was calculated by the KinExA software and the 95% confidence interval is given as the Kd range.

[3] = molecular target: T1, recombinant human Interleukin-8; test: calculated from KinExA kon and Kd
Source text: as §1, §2

[4] = molecular target: T1, recombinant human Interleukin-8; test: KinExA equilibrium, optimized, n-curve analysis, mAb 1.3 and 13 pM
Source text: (§4) The mixture was drawn through the rhIL-8-coupled beads to accumulate unbound antibody. The captured anti-hIL-8 mAb is directly proportional to the remaining free binding sites and was detected using solutions containing Cy5-conjugated anti-human secondary antibody in sample buffer. The concentrations, volumes, and flow rates of the secondary antibody solutions were varied to optimize the signal to noise ratio in each experiment. The bound signals were converted into relative values as a proportion of control in the absence of rhIL-8. The equilibrium dissociation constant (Kd) was obtained from nonlinear regression analysis of the data using a one-site homogeneous binding model contained within the software [Blake et Al., Anal. Biochem. 272:123, 1999; Jones et al., Bioconjug Chem 13:408, 2002]. […]
(§5) A proportionate amount of free mAb present in the equilibrium mixture was measured in KinExA under optimized conditions. For example, for the mixtures containing the low concentration of mAb, 18-36 ml of the sample was flown through rhIL-8 coupled to NHS-activated Sepharose beads and detected using 1-2 ml of 2.0 μg/ml of Cy5-labeled goat anti-human IgG Fcγ fragment-specific secondary antibody. The Kd was calculated using KinExA software by using the “n-curve analysis” selection.

[5] = molecular target: T1, recombinant human Interleukin-8; test: not named in this sentence (summary of the filing's own affinity results)
[6] = molecular target: T1, recombinant human Interleukin-8; test: KinExA equilibrium in solution, 36 h, mAb 23 pM
Experimental: as §3, with “The software calculates the Kd and determines the 95% confidence interval by fitting the data points to a theoretical Kd curve. The 95% confidence interval is given as Kd low and Kd high.” left out
(§6) A proportionate amount of free mAb present in the equilibrium mixture was measured by flowing 0.25 ml to 3 ml of the sample on rhIL-8 coupled to CNBr-activated Sepharose beads and detected using 1.0 ml of 1.7 μg/ml of Cy5-labeled goat anti-human IgG Fcγ fragment-specific secondary antibody. […]

[7] = molecular target: T2, IL-8 peptide ELRCQCIKTYSK (human); test: overlapping IL-8 peptides on a membrane; column "Recognized epitope"
T2 peptide: ELRCQCIKTYSK
Experimental: Briefly, overlapping IL-8 peptides, which were each two amino acids c-terminal to the previous peptide (as shown in FIG. 8) were prepared and attached to a membrane. Antibodies were then added and allowed to bind to the peptides.

[8] = molecular target: T1, recombinant human Interleukin-8; test: KinExA equilibrium, optimized, n-curve analysis, mAb 4.6 and 27 pM
Source text: as §4, §5

[9] = molecular target: T1, recombinant human Interleukin-8; test: KinExA equilibrium in solution, 36 h, mAb 10 pM
Experimental: as §3, with “The software calculates the Kd and determines the 95% confidence interval by fitting the data points to a theoretical Kd curve. The 95% confidence interval is given as Kd low and Kd high.” left out
as §6

[10] = molecular target: T1, recombinant human Interleukin-8; test: KinExA equilibrium in solution, 36 h, mAb 90 pM
Experimental: as §3, with “The software calculates the Kd and determines the 95% confidence interval by fitting the data points to a theoretical Kd curve. The 95% confidence interval is given as Kd low and Kd high.” left out
as §6

[11] = molecular target: T1, recombinant human Interleukin-8; test: KinExA equilibrium, optimized, n-curve analysis, mAb 18 and 120 pM
Source text: as §4, §5

[12] = molecular target: T1, recombinant human Interleukin-8; test: KinExA equilibrium in solution, 36 h, mAb 100 pM
Experimental: as §3, with “The software calculates the Kd and determines the 95% confidence interval by fitting the data points to a theoretical Kd curve. The 95% confidence interval is given as Kd low and Kd high.” left out
as §6

[13] = molecular target: T1, recombinant human Interleukin-8; test: KinExA equilibrium in solution, 36 h, mAb 200 pM
Experimental: as §3, with “The software calculates the Kd and determines the 95% confidence interval by fitting the data points to a theoretical Kd curve. The 95% confidence interval is given as Kd low and Kd high.” left out
as §6

kon [1]: 4.4e+06 M⁻¹ s⁻¹ | Kd [2]: 0.0029 nM | koff [3]: 1.3e-05 s⁻¹ | Kd [4]: 3 pM | Kd [5]: ~2.89 pM
B1: anti-hIL-8 mAb 861 (antibody, human IgG2, V domains shown)
VH: QVQLVESGGGVVQPGRSLRLSCAASGFTFSNYGMHWVRQAPGKGLEWVAVIYFEGSNKYNADSVKGRFTISRDNSKNTLYLQMNSLRAEDTAVYYCARSPYGDYLDYWGQGTLVTVSS
VL: EIVLTQSPGTLSLSPGERATLSCRASQTIDYNYLHWYQQKPGQAPRLLIYGTFIRATVIPDRFSGSGSGTDFTLTISRLEPEDIAVYYCQQFGRSPLTFGGGTKVEIK
notes: also called antibody number 861

Kd [2]: 0.19 nM
B3: anti-hIL-8 mAb 203 (antibody, human IgG2, V domains shown)
VH: QVQLVQSGAEVKKPGASVKVSCKASGYTFTGYYIHWVRQAPGQGLEWMGWINSNSGGTNFAQKFQGRVTMTRDTSISTAYMELSRLRPDDTAVYYCASGYRYGYRYYYYGMDVWGQGTTVTVSS
VL: DIQMTQSPSSLSASVGDRVTITCRASQGISNSLAWYQQKPGKVPKLLIYAASTLQSGVPSRFSGSGSGTDFTLTISSLQPEDVATYYCQKYNSVPLTFGGGTKVEIN
notes: also called antibody number 203

Kd [6]: 2.2 pM | binding result [7]: binds | kon [1]: 4.8e+06 M⁻¹ s⁻¹ | koff [3]: 1.6e-05 s⁻¹ | Kd [8]: 3.29 pM | Kd [5]: ~2.23 pM
B4: anti-hIL-8 mAb 809 (antibody, human IgG2, V domains shown)
VH: QVQLVESGGGVVQPGRSLRLSCAASGFTFSSYGMLWVRQAPGKGLEWVADISYDGSNKYYADSVKGRFTISRDNSKNTLFLQMNSLRAEDTAVYYCARDRIAVADYWGQGTLVTVSS
VL: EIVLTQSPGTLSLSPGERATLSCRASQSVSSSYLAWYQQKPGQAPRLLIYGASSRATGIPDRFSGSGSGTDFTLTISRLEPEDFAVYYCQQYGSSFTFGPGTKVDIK
notes: also called clone 6G11

Kd [9]: 0.28 nM
B5: anti-hIL-8 mAb 33 (antibody, human IgG2, V domains shown)
VH: QVQLQQWGAGLLKPSETLSLTCAVYGGFFSGYYWSWIRQPPGKGLEWIGEINHSGSTNYNPSLKSRVTISVDTSKNQFSLKLISVTAADTAVYYCARGSAAEAFDIWGQGTMVTVSS
VL: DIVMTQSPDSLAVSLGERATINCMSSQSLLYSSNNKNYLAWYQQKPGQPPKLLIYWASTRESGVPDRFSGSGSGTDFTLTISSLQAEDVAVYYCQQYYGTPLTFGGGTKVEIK
notes: also called antibody number 33

Kd [12]: 0.2 nM
B7: anti-hIL-8 mAb 1093 (antibody, human IgG2, V domains shown)
VH: QVQLQQWGAGLLKPSETLSLTCAVFGGSFSGYYWTWIRQPPGKGLEWIGEIIHHGSTNYSPSLKSRVTISADTSKSQFSLRLSSVTAADTAVYYCARGGAAAGLDSWGQGTLVTVSS
VL: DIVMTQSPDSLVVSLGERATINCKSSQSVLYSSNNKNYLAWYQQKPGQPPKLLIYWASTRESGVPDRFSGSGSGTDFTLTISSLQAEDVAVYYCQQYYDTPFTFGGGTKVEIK
notes: also called antibody number 1093

More lines, now with the values behind:

B2: anti-hIL-8 mAb 142 (antibody, human IgG2, V domains shown)
VH: B3 VH with I34M, F60Y, A61S, A79V, P88S, R101S
VL: B3 VL with K45N, N107K
notes: also called antibody number 142
Kd [2]: 0.4 nM

B6: anti-hIL-8 mAb 837 (antibody, human IgG2, V domains shown)
VH: B7 VH with S28T, I51V, G103A, T114I
VL: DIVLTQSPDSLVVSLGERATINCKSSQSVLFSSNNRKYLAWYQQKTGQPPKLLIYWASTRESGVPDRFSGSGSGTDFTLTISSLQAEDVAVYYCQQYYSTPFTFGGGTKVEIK
notes: also called clone 36C6; ABXha-IL-8
binding result [7]: binds | Kd [10]: 0.011 nM | kon [1]: 1.1e+06 M⁻¹ s⁻¹ | koff [3]: 1.9e-05 s⁻¹ | Kd [11]: 0.0157 nM | Kd [5]: ~10.9 pM

B8: anti-hIL-8 mAb 1080 (antibody, human IgG2, V domains shown)
VH: QVQLQQWGAGLLKPSESLSLTCAVYGGSFFSGYYWSWIRQPPGKGLEWIGEITHSGNTNYNPSLKSRVSISVDTSTNQFSLKLSSVTAADTAVYYCGRGGAEVGFDYWGQGTLVTVSS
VL: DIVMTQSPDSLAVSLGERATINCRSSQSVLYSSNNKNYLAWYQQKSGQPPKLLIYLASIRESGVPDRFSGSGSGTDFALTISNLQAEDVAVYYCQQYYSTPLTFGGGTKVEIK
Kd [2]: 0.63 nM

B9: anti-hIL-8 mAb 469 (antibody, human IgG2, V domains shown)
VH: EVQLLESGGGLVQPGGSLRLSCAASGFTFSSYVMSWVRQAPGKGLEWVSAINNSGGSTDYADSVKGRFTISRDNSKNTLYLQMNSLRAEDTAVYYCAKEGRFLEWSLYGLDVWGQGTTVTVSS
VL: DIQMTQSPSSLSASVGDRVTIACRASQGIRNDLGWYQQKPGKAPKRLIYAASSLQSGVPSRFGGSGSGTEFTLTISSLQPEDFATYYCLQHNSYPRTFGQGTKVEIK
notes: also called antibody number 469
Kd [13]: 0.87 nM

— patent US20140105905A1 (Amgen, published 2014)
